This note sets out measurements from patent US20020086014A1 (Bristol-Myers Squibb, published 2002).

For assay [1], the target named is T1, purified recombinant human CTLA-4 (human, UniProt P16410 36-161, limits assumed).
T1 construct: also called purified CTLA-4; purified recombinant CTLA-4
T1 sequence (looked up): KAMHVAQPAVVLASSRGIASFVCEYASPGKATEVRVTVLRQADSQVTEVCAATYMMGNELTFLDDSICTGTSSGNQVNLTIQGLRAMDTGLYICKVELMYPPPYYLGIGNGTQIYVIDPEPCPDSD
The assay can be described thus: competitive ELISA on CTLA-4: unlabelled IgG 0-6666 ng/ml against biotin-labelled 3A4. (An ELISA detects its analyte on a solid surface through an enzyme-linked reagent.)

The target in assay [2] is T1, purified recombinant human CTLA-4. The assay can be described thus: competitive ELISA on CTLA-4: unlabelled IgG 0-6666 ng/ml against biotin-labelled BNI 3.1.
Assay [3] deals with human CTLA-4 expressed on cells (human) (UniProt P16410). As to the kind of experiment: flow cytometry (FACScan), cell line expressing recombinant CTLA-4, FITC-anti human IgG.
The target in the next assay is murine CTLA-4 (murine) (UniProt P09793). The description is as above.
Another assay deals with macaque CTLA-4 (macaque). Described as above.

Chain of murine CTLA-4 (murine) (P09793 36-223): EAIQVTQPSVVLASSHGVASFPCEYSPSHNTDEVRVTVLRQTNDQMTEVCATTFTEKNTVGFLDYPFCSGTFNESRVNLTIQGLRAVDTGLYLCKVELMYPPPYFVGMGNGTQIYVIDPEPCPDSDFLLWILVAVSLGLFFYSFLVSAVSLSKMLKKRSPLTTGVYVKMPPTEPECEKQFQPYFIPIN

With BNI3 (antibody), the figures for the IC50 (read off the curve) in assay [1] and in assay [2] were 0.09 µg/mL and 0.5 µg/mL, respectively.

Take isotype control (Table 5) (antibody): the MFI in assay [3] came to 3 MFI; with murine CTLA-4 (murine), 5 MFI; with macaque CTLA-4 (macaque), 4 MFI.

B1: 1E2 (antibody, V domains shown)
VH: QVQLVESGGGVVQPGRSLRLSCAASGFTFSSYGMHWVRQAPGKGLEWVAVIWYDGSNKYYADSVKGRFTISRDNSKNTLYLQMNSLRAEDTAVFYCARAPNYIGAFDVWGQGTMVTVSS
VL: DIQMTQSPSSLSASVGDRVTITCRASQGISSWLAWYQQKPEKAPKSLIYAASSLQSGVPSRFSGSGSGTDFTLTISSLQPEDFATYYCQQYNSYPPTFGQGTKVEIK
notes: Human anti-CTLA-4 monoclonal antibody
In the case of B1, the “IC50 (read off the curve)” value in assay [1] is roughly 0.2 µg/mL.
